Substrate in series [1]: N[C@@](CF)(Cc1c[nH]c2ccccc12)C(=O)O
Kind of series: Km value was evaluated as a substrate for P815 tryptophan hydroxylase […].

Substrate in series [2]: N[C@@](CF)(Cc1c[nH]c2ccccc12)C(=O)O
Kind of series: Compound was evaluated as a substrate for P815 tryptophan hydroxylase […].

Experimental findings from ChEMBL document CHEMBL1126580, “Enantiospecific syntheses of alpha-(fluoromethyl)tryptophan analogues: interactions with tryptophan hydroxylase and aromatic L-amino acid decarboxylase” (J Med Chem, 1993) are described below.

B1: Tryptophan 5-hydroxylase 1 (Rattus norvegicus), P09810 (protein)
chain: MIEDNKENKDHSSERGRVTLIFSLKNEVGGLIKALKIFQENHVNLLHIESRKSKRRNSEFEIFVDCDINREQLNDIFPLLKSHTTVLSVDSPDQLPEKEDVMETVPWFPKKISDLDFCANRVLLYGSELDADHPGFKDNVYRRRRKYFAELAMNYKHGDPIPKIEFTEEEIKTWGTIFRELNKLYPTHACREYLRNLPLLSKYCGYREDNVPQLEDVSNFLKERTGFSIRPVAGYLSPRDFLSGLAFRVFHCTQYVRHSSDPLYTPEPDTCHELLGHVPLLAEPSFAQFSQEIGLASLGASEETVQKLATCYFFTVEFGLCKQDGQLRVFGAGLLSSISELRHALSGHAKVKPFDPKVACKQECLITSFQDVYFVSESFEDAKEKMREFAKTVKRPFGVKYNPYTQSIQVLRDSKSITSAMNELRHDLDVVNDALARVSRWPSV
For B1, the Km in series [1] amounted to 4.31 mM. For the same protein, in series [2], the Vmax (uM min-1 (mg of protein)-1) is 17.7.
